Test results from PMC2172719.

Target: Ufd1–Npl4ΔZF complex (UniProt Q9ES53)
Assay: co-IP

- percent of the input material bound: < 5%
Substance: polyubiquitin chains with lysine 63 linkages (from UniProt P0CG53 1-76)
